Starred links: 1 amine or outer side, 2 acyl side, 3 side chain; linkers in the order of their positions; H or OH if unused. Positions of bridges follow the written chain, without caps; N, C: chain ends. Non-standard residues stand in square brackets, D forms with d. Primed or numbered codes have the meaning given here. No end group written: not given here. *: point of attachment. Tyr(OMe)″ = O-methyl-tyrosine (Y-OMe, TyrOMe, O-Me-Tyr), COc1ccc(C[C@H](N[*:1])C(=O)[*:2])cc1; Tyr(Me)(4) = O-methyl-tyrosine (O-Me-Tyr, TyrMe), COc1ccc(C[C@H](N[*:1])C(=O)[*:2])cc1; Tyr(OMe) = O-methyl-tyrosine (O-Me-Tyr, Y-OMe), COc1ccc(C[C@H](N[*:1])C(=O)[*:2])cc1; Tyr(Me) = O-methyl-tyrosine (Y-OMe, O-Me-Tyr), COc1ccc(C[C@H](N[*:1])C(=O)[*:2])cc1; Tyr(Me)(3) = O-methyl-tyrosine (O-Me-Tyr), COc1ccc(C[C@H](N[*:1])C(=O)[*:2])cc1; Tyr(nHex) = O-n-hexyl-tyrosine, CCCCCCOc1ccc(C[C@H](N[*:1])C(=O)[*:2])cc1; t‑but‑am‑Pmp = tert-butyl-substituted beta,beta-pentamethylenecysteine; Tyr(OMe)(3) = O-methyl-tyrosine, COc1ccc(C[C@H](N[*:1])C(=O)[*:2])cc1; Cys(β,β-pentamethylene) = O=C([C@@H](N[*:1])C1(S[*:3])CCCCC1)[*:2]; O‑Me‑Tyr = O-methyl-tyrosine, COc1ccc(C[C@H](N[*:1])C(=O)[*:2])cc1; Tyr(3,5-I2) = N[C@@H](Cc1cc(I)c(O)c(I)c1)C(=O)O; Cyclohexylacetyl(1-SH) = O=C(CC1(S)CCCCC1)*; 1Nal = N[C@@H](Cc1cccc2ccccc12)C(=O)O; dPen = CC(C)(S)[C@@H](N)C(=O)O; Pen = CC(C)(S)[C@H](N)C(=O)O; code O = not defined here
Columns and labels:
[1] = molecular target: T1, Platelet glycoprotein IIb/IIIa (human, UniProt P08514 32-1039; P05106 27-788); test: competition, ELISA or liposome assay
T1 construct: mature; on human platelets in the aggregation assays (functional rows); also called GP IIb/IIIa; GPIIbIIIa

Vitronectin receptor = molecular target: T2, Vitronectin receptor (human, UniProt P06756 31-1048; P05106 27-788); test: competition, ELISA or liposome assay, vitronectin coated
T2 construct: mature; also called Vn-R; VnR
T2 sequence (P06756 31-1048, chain 1 of 2): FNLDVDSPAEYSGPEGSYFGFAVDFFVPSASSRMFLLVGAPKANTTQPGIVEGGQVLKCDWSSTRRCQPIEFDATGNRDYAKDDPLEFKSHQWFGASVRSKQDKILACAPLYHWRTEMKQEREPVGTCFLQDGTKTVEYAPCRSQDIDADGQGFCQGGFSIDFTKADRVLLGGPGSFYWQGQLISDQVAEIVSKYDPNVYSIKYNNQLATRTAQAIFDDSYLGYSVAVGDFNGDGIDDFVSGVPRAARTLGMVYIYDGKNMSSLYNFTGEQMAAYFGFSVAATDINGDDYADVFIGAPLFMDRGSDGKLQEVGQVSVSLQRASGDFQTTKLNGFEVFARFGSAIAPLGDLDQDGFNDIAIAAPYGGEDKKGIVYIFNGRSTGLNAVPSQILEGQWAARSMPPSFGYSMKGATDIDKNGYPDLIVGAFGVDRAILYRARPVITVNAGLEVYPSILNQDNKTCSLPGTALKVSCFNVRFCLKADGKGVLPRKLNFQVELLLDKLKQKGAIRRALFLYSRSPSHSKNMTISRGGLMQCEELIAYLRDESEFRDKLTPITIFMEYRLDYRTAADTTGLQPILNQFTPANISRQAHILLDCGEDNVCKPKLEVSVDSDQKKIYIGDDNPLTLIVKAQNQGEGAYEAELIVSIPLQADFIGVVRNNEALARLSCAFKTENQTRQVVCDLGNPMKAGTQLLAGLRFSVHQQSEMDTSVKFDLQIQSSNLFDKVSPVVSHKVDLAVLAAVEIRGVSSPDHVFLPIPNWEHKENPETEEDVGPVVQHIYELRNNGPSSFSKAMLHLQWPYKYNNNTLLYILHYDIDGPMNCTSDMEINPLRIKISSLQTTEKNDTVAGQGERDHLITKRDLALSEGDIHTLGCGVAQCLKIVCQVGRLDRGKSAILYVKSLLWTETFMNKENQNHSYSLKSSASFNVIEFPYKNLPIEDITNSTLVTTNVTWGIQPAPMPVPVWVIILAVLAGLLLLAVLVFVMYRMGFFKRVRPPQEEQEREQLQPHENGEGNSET
T2 sequence (P05106 27-788, chain 2 of 2): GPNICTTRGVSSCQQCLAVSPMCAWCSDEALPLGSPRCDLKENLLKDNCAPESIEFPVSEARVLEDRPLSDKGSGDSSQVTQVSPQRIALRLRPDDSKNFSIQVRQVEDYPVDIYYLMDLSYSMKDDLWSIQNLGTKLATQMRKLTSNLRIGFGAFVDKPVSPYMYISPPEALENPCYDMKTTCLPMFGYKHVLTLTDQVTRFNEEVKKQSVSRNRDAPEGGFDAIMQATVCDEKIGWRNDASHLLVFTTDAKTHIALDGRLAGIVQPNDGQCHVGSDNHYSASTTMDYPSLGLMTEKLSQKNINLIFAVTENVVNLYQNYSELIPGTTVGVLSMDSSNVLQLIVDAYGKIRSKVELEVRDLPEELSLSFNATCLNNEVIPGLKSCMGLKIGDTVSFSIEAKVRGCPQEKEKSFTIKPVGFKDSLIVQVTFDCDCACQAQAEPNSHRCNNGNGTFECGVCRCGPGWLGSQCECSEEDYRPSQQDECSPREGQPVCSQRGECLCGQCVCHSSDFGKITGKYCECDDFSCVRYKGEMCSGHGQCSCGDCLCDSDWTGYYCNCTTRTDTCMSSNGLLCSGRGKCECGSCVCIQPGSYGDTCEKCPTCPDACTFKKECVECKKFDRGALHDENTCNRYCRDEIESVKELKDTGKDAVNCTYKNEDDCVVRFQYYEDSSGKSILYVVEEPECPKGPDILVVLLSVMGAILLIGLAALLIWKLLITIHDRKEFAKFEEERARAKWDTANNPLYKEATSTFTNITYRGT

Fibronectin receptor = molecular target: T3, Fibronectin receptor (human, UniProt P08648 42-1049; P05556 21-798); test: competitive ELISA, fibronectin coated
T3 construct: mature; Purified on a 110 kd fibronectin fragment column; also called Fn-R; FnR
T3 sequence (P08648 42-1049, chain 1 of 2): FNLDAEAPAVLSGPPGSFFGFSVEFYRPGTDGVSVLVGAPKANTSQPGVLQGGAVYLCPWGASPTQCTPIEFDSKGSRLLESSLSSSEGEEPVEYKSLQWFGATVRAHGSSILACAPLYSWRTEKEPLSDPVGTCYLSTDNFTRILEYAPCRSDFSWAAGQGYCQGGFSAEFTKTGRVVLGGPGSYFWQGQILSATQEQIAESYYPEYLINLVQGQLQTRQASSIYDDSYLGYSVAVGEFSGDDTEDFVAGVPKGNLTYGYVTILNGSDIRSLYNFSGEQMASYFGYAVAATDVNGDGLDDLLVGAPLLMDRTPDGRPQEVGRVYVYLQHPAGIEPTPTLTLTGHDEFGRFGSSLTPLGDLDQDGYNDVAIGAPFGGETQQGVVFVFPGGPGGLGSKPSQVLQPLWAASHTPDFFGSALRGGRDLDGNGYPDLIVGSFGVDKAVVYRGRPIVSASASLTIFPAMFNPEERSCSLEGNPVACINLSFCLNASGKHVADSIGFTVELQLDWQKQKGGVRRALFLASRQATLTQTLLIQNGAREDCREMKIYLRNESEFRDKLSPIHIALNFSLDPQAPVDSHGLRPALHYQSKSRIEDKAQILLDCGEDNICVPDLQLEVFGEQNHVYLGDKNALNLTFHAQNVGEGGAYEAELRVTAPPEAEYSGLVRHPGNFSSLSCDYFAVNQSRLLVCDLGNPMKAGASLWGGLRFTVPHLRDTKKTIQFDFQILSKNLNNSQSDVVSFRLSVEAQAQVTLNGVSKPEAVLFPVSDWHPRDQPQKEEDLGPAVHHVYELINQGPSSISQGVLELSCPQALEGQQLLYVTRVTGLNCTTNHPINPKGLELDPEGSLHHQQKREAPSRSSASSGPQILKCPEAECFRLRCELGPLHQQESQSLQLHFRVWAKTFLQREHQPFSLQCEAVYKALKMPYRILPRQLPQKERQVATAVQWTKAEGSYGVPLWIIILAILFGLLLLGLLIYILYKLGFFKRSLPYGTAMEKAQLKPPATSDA
T3 sequence (P05556 21-798, chain 2 of 2): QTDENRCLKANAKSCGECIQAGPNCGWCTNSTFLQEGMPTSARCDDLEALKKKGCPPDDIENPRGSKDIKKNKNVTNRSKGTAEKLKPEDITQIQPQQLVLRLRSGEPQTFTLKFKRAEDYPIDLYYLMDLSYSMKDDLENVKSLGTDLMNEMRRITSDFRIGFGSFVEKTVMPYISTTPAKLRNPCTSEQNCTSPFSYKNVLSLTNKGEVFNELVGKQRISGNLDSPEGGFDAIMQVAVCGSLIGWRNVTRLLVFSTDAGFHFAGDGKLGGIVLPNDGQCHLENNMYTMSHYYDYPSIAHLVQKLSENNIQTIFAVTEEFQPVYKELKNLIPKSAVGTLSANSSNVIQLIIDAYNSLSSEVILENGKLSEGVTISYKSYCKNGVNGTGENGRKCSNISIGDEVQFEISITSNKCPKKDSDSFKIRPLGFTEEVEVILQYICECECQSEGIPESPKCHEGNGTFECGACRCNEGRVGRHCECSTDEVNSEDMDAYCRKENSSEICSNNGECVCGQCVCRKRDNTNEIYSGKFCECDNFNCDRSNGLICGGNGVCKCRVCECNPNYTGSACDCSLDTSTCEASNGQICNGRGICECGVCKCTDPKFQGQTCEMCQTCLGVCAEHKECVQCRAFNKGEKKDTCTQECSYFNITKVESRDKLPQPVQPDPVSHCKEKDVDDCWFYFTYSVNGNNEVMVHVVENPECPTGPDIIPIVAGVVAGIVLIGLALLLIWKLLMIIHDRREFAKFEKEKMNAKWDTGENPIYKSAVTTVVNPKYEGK

[2] = molecular target: T1, Platelet glycoprotein IIb/IIIa; test: cell-based or functional assay
[3] = molecular target: T1, Platelet glycoprotein IIb/IIIa; test: cell-based or functional assay; remark: listed apart in the source
[4] = molecular target: T1, Platelet glycoprotein IIb/IIIa; test: cell-based or functional assay; remark: listed apart in the source

B1: R(t-but-am-Pmp)GHRGDLRCR-2 (peptide)
peptide: R[t‑but‑am‑Pmp]GHRGDLRCR
modifications: disulfide 2-10; not fully specified; printed as R(t-but-am-Pmp)GHRGDLRCR-2; also: second HPLC peak, configuration not assigned
- IC50 [1]: 0.06 µM
- IC50 (Vitronectin receptor): 3.7 µM

B2: Ac(Pmc)GHRGD(O-Me-Tyr)RC-NH2 (peptide)
peptide: Ac-[Cys(β,β-pentamethylene)]GHRGD[Tyr(OMe)]RC-NH2
modifications: disulfide 1-9
SMILES: COc1ccc(C[C@@H]2NC(=O)[C@H](CC(=O)O)NC(=O)CNC(=O)[C@H](CCCNC(=N)N)NC(=O)[C@H](Cc3c[nH]cn3)NC(=O)CNC(=O)[C@@H](NC(C)=O)C3(CCCCC3)SSC[C@@H](C(N)=O)NC(=O)[C@H](CCCNC(=N)N)NC2=O)cc1
- IC50 [1]: 0.4 µM
- IC50 (Vitronectin receptor): 10 µM

Binder: D[Cys(β,β-pentamethylene)]GHRGD[Tyr(OMe)″]RCR (disulfide 2-10) [D(Pmc)GHRGD(O-Me-Tyr)RCR]
- IC50 (Fibronectin receptor): 10 µM

Binder: T[Cys(β,β-pentamethylene)]GHRGD[Tyr(OMe)(3)]RCR (disulfide 2-10; not fully specified; printed as T(Pmc)GHRGD(O-Me-Tyr)RCR) [T(Pmc)GHRGD(O-Me-Tyr)RCR]
- IC50 (Fibronectin receptor): 10 µM
- IC50 (Vitronectin receptor): 10 µM

Binder: R[Cys(β,β-pentamethylene)]GHRGD[Tyr(Me)]KCR (disulfide 2-10) [R(Pmc)GHRGD(O-Me-Tyr)KCR]
- IC50 (Fibronectin receptor): 10 µM
- IC50 (Vitronectin receptor): 10 µM

Binder: G[Cys(β,β-pentamethylene)]GHRGD[Tyr(Me)(3)]RCR (disulfide 2-10) [G(Pmc)GHRGD(O-Me-Tyr)RCR]
- IC50 (Fibronectin receptor): 10 µM
- IC50 (Vitronectin receptor): 10 µM

Binder: R[Cys(β,β-pentamethylene)]GHRGD[Tyr(3,5-I2)]RCR (disulfide 2-10) [R(Pmc)GHRGD(3,5-diiodo-Tyr)RCR]
- IC50 (Vitronectin receptor): 0.9 µM

Binder: G[Pen]FRGDSFCA (disulfide 2-9) [G(Pen)FRGDSFCA]
- IC50, ADP-Stimulated Aggregation [2]: < 200 µM
- IC50 (Vitronectin receptor): 0.05 µM

Binder: G[Pen]GRGDSFCA (disulfide 2-9) [G(Pen)GRGDSFCA]
- IC50, ADP-Stimulated Aggregation [2]: 115 µM
- IC50 (Vitronectin receptor): 0.02 µM

Binder: R[Pen]GRGDTPCA (disulfide 2-9) [R(Pen)GRGDTPCA]
- IC50, ADP-Stimulated Aggregation [2]: 7 µM
- IC50 (Fibronectin receptor): 0.08 µM
- IC50 (Vitronectin receptor): 0.03 µM

B3: K(Pen)GRGDTPCA (peptide)
peptide: K[Pen]GRGDTPCA
modifications: disulfide 2-9
notes: 21 numbers stand for 20 rows, so none is assigned
- IC50 (Fibronectin receptor): 0.03 µM

Binder: R[Cys(β,β-pentamethylene)]GHRGD[O‑Me‑Tyr]RCR (disulfide 2-10, also called R(Pmc)GHRGD(Y-OMe)RCR; 5O) [R(Pmc)GHRGD(O-Me-Tyr)RCR]
- IC50 [1]: 0.06 µM

Binder: R[Cys(β,β-pentamethylene)]GHRGD[Tyr(nHex)]RCR (disulfide 2-10) [R(Pmc)GHRGD(O-n-hexyl-Tyr)RCR]
- IC50 (Fibronectin receptor): 2 µM

Binder: R[Cys(β,β-pentamethylene)]GHRGD[Tyr(Me)][code O]CR (disulfide 2-10; reading uncertain; also: printed as R(Pmc)GHRGD(O-Me-Tyr)OCR) [R(Pmc)GHRGD(O-Me-Tyr)OCR]
- IC50 [1]: 0.007 µM

Binder: R[Cys(β,β-pentamethylene)]GRGDTPCA (disulfide 2-9) [R(AminoPmp)GRGDTPCA]
- IC50 (Fibronectin receptor): 0.03 µM

Binder: R[Pen]GRGDTPCR (disulfide 2-9) [R(Pen)GRGDTPCR]
- IC50, Thrombin Stimulated Aggregation [2]: 2 µM
- IC50 (Vitronectin receptor): 0.01 µM

Binder: R[Cys(β,β-pentamethylene)]GRGDWPCR (disulfide 2-9) [R(am-Pmp)GRGDWPCR]
- IC50 (Fibronectin receptor): 0.05 µM

Binder: R[Pen]GHRGD[1Nal]RCR (disulfide 2-10) [R(Pen)GHRGD(1-Nal)RCR]
- IC50 (Fibronectin receptor): 10 µM

Binder: Ac-CDPRGD[Tyr(OMe)″]RC-NH2 (disulfide 1-9 (inferred)) [AcCDPRGD(TyrOMe)RC-NH2]
- Inhibition of Platelet Aggregation, IC50 [3]: 3 µM

Binder: FRGDSPDG
- IC50, ADP-Stimulated Aggregation [2]: 110 µM
- IC50 (Fibronectin receptor): 2.4 µM
- IC50 (Vitronectin receptor): 0.04 µM

Binder: LRGDSPDG
- IC50, ADP-Stimulated Aggregation [2]: 150 µM
- IC50 (Vitronectin receptor): 0.2 µM

Binder: VRGDSPDG
- IC50, ADP-Stimulated Aggregation [2]: 92 µM
- IC50 [1]: 0.27 µM
- IC50 (Fibronectin receptor): 0.04 µM
- IC50 (Vitronectin receptor): 0.24 µM

Binder: R[Cys(β,β-pentamethylene)]GHRGDLRCR (disulfide 2-10; not fully specified; printed as R(am-Pmp)GHRGDLRCR-1) [R(am-Pmp)GHRGDLRCR-1]
- IC50 [1]: 0.4 µM

Binder: R[Cys(β,β-pentamethylene)]GHRGD[Tyr(Me)(4)]RCR (disulfide 2-10; also: am-Pmp2 from racemic mixture) [R(am-Pmp)GHRGD(TyrMe)RCR]
- IC50 (Vitronectin receptor): 1 µM

Binder: R[dPen]NPRGD[Tyr(OMe)(3)]RCR (disulfide 2-10) [R(dPen)NPRGD(O-Me-Tyr)RCR]
- IC50 (Fibronectin receptor): 10 µM

Binder: [Cyclohexylacetyl(1-SH)]GHRGDLRCA (disulfide 1-9) [(Pmp)GHRGDLRCA]
- IC50 (Vitronectin receptor): 10 µM

Binder: R[Pen]GHRGDWRCR (disulfide 2-10, also called 4Q) [R(Pen)GHRGDWRCR]
- IC50 (µM) Human Platelet Aggregation [4]: 3.3 µM
- IC50 [1]: 0.8 µM

Binder: R[Cys(β,β-pentamethylene)]GHRGDVRCR (disulfide 2-10; not fully specified; printed as R(Pmc)GHRGDVRCR) [R(Pmc)GHRGDVRCR]
- IC50, ADP-Stimulated Aggregation [2]: 0.69 µM
- IC50 (Vitronectin receptor): 2 µM

Binder: R[Cys(β,β-pentamethylene)]GHRGDWRCR (disulfide 2-10; not fully specified; printed as R(am-Pmp)GHRGDWRCR-1) [R(am-Pmp)GHRGDWRCR-1]
- IC50 [1]: 0.06 µM

— US6521594 (LA JOLLA CANCER RESEARCH FOUNDATION, dated 2003)
